Data published in patent US20250326842A1.

Columns and labels:
Human C1q (human) = Human C1q (human) (UniProt P02745); test: ELISA: plate coated with increasing amounts of antibody, human C1q at 8 µg/mL, anti-C1q antibody detection
FcγRI (human) = FcγRI (human) (UniProt P12314); test: Biacore, KD from kinetic constants (koff/kon)
FcγRIIIA F158 (human) = FcγRIIIA F158 (human) (UniProt P08637); test: Biacore, KD from equilibrium analysis
FcγRIIA R131 (human) = FcγRIIA R131 (human) (UniProt P12318); test: Biacore, KD from equilibrium analysis
Chain of FcγRIIA R131 (human) (P12318 36-218 H167R limits assumed): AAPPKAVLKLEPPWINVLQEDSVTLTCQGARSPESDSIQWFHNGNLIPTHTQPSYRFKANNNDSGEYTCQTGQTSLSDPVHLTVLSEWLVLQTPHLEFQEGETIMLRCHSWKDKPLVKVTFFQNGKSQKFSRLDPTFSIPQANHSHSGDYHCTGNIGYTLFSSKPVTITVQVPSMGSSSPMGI

FcγRIIA H131 (human) = FcγRIIA H131 (human) (UniProt P12318); test: Biacore, KD from equilibrium analysis
Chain of FcγRIIA H131 (human) (P12318 36-218 limits assumed): as the sequence (P12318 36-218 H167R limits assumed) above, with R132H counted along it

FcγRIIB (human) = FcγRIIB (human) (UniProt P31994); test: Biacore, KD from equilibrium analysis
Chain of FcγRIIB (human) (P31994 46-217 limits assumed): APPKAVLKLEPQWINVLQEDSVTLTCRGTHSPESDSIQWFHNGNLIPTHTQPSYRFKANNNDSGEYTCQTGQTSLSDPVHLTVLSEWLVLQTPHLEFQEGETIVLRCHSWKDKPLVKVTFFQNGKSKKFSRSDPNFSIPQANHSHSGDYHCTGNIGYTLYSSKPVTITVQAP

Chain of FcγRI (human) (P12314 16-288 limits assumed): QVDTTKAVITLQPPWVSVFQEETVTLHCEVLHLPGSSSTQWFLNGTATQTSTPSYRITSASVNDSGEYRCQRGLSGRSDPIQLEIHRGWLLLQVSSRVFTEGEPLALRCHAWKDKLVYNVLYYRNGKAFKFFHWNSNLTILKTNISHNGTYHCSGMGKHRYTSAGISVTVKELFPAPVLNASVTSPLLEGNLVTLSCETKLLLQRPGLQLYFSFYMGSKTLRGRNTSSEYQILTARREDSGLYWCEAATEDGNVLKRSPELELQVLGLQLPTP
Chain of FcγRIIIA F158 (human) (P08637 17-208 limits assumed): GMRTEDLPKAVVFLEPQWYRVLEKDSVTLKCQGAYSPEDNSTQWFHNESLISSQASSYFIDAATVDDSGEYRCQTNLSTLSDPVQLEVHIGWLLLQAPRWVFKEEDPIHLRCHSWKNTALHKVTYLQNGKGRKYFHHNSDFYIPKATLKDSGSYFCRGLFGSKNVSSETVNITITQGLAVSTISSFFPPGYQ
Chain of Human C1q (human) (P02745 23-245 limits assumed, chain 1 of 3): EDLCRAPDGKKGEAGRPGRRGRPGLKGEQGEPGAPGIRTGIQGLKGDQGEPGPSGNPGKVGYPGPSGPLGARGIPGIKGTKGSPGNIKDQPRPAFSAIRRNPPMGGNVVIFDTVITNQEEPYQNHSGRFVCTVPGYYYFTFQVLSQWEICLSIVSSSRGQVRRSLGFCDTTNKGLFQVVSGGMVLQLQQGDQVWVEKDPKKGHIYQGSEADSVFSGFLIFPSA
Chain of Human C1q (human) (P02746 28-253 limits assumed, chain 2 of 3, further chain): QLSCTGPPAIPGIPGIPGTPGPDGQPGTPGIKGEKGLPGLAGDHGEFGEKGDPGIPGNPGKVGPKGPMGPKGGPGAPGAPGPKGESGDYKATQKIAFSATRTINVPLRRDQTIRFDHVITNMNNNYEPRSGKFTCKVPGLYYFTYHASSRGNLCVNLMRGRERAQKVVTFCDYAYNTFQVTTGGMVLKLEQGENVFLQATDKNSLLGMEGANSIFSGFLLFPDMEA
Chain of Human C1q (human) (P02747 29-245 limits assumed, chain 3 of 3, further chain): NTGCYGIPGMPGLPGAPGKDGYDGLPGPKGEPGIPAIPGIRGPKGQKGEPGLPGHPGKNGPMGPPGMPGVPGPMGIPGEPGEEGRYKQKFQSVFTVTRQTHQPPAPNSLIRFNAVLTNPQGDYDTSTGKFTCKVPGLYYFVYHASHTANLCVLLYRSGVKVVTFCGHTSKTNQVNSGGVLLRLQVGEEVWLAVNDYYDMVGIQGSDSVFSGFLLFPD

**Q.** Which results are given for HuIgG (antibody)?
**A.** EC50 (read off the curve) (Human C1q (human)): 2 µg/mL; Kd (FcγRI (human)): 2.7 nM; Kd (FcγRIIIA F158 (human)): 691 nM; Kd (FcγRIIA R131 (human)): 481 nM; Kd (FcγRIIA H131 (human)): 379 nM; Kd (FcγRIIB (human)): 3.12 µM
